One data set relates to non-human hepatocytes. The note with it: literature (Jo et al. 2000); cited from earlier work.
Data set [1] concerns isolated human heptocytes. Conditions: literature (Jo et al. 2000); cited from earlier work.
A further data set has as its system various tumor cell lines. The note with it: literature (Walczak 1999; Wiley 1995; Pitti 1996); cited from earlier work.
The test system of a further data set is human tumors. Conditions: mice and nonhuman primates; literature (Walczak 1999; Ashkenazi 1999); cited from earlier work.
The test system of data set [2] is nontransformed, normal cells. The note with it: literature (Walczak 1999; Wiley 1995; Pitti 1996); cited from earlier work.
A further data set has as its system hepatocyte. The note with it: literature (Lawrence et al. 2001); cited from earlier work.
Another data set has as its system U937 human tumor cells. Description: Cell Death Detection ELISA apoptosis assay, U937. Format: cell-based. Conditions: mammalian expressed TRAIL supernatants; commercial human TRAIL and Fas ligand 100 ng/ml (FIGS. 19B, 20B, 21B). On the procedure:
4. Cell Death Detection ELISA Plus assay for apoptosis. The assay is based on a quantitative sandwich-enzyme-immunoassay-principle using mouse monoclonal antibodies directed against DNA and histones, respectively. This allows the specific determination of mono- and oligonucleosomes in the cytoplasmatic fraction of cell lysates. Roche kit, Cat. # 1 774 425, was used for this assay. 0.1 ml of U937 or any other types of cells (2×104 ) and 0.1 ml of tissue culture supernatant or other solutions containing apoptosis inducing agents (e.g. TRAIL) were used for this assay in 48-well plate. After 24 or 48 hrs of incubation at 3 7° C., the cells were spun at 2,000 rpm for 10 minutes. Cell pellet was then resuspended in 200 ul lysis buffer and incubated for 30 minutes at room temperature. The cell lysate was then centrifuged at 2,000 rpm for 10 minutes and diluted at 1:10 with incubation buffer. 20 ul of diluted lysate was added to coated plate (MTP from kit) and 80 ul of the immunoreagent was added to each well. MTP was then covered with adhesive cover foil and incubated under gentle shaking for 2 hours at room temperature. The solution was then removed thoroughly by tapping and subsequently rinsed 3 times with 250 ul incubation buffer. 100 ul ABTS solution was added and incubated on a plate shaker at 250 rpm for 15 minutes. Readings at 405 nm and 490 nm (background) were done on ELISA reader. […]
For orientation: In an ELISA, binding on a coated surface is turned into a signal by an enzyme label.

The test system of the next data set is Normal dog hepatocytes. Description: Cell Death ELISA apoptosis assay, normal dog hepatocytes. Format: cell-based. The note with it: mammalian expressed TRAIL supernatants; Fas ligand 100 ng/ml (FIG. 21B). On the procedure: 4. Cell Death Detection ELISA Plus assay for apoptosis. The assay is based on a quantitative sandwich-enzyme-immunoassay-principle using mouse monoclonal antibodies directed against DNA and histones, respectively. This allows the specific determination of mono- and oligonucleosomes in the cytoplasmatic fraction of cell lysates. Roche kit, Cat. # 1 774 425, was used for this assay. 0.1 ml of U937 or any other types of cells (2×104 ) and 0.1 ml of tissue culture supernatant or other solutions containing apoptosis inducing agents (e.g. TRAIL) were used for this assay in 48-well plate. After 24 or 48 hrs of incubation at 3 7° C., the cells were spun at 2,000 rpm for 10 minutes. Cell pellet was then resuspended in 200 ul lysis buffer and incubated for 30 minutes at room temperature. The cell lysate was then centrifuged at 2,000 rpm for 10 minutes and diluted at 1:10 with incubation buffer. 20 ul of diluted lysate was added to coated plate (MTP from kit) and 80 ul of the immunoreagent was added to each well. MTP was then covered with adhesive cover foil and incubated under gentle shaking for 2 hours at room temperature. The solution was then removed thoroughly by tapping and subsequently rinsed 3 times with 250 ul incubation buffer. 100 ul ABTS solution was added and incubated on a plate shaker at 250 rpm for 15 minutes. Readings at 405 nm and 490 nm (background) were done on ELISA reader.
3. […]

For the substance “polyhistidine-tagged recombinant human TRAIL (residues 114-281): polyhistidine-tagged recombinant human TRAIL (residues 114-281), Jo et al. 2000”, in the data set with non-human hepatocytes, the “apoptosis in vitro in non-human hepatocytes” value is given as “not in non-human hepatocytes”. Also, in data set [1], the “apoptosis in vitro in isolated human hepatocytes” value was “induce apoptosis”.

For the substance “TRAIL protein: TNF-related apoptosis-inducing ligand as reported in the literature”, in the data set on various tumor cell lines, the “apoptosis in various tumor cell lines” value is listed as “induce apoptosis”. Also, in the data set on human tumors, the “apoptosis in human tumors after administration of TRAIL” value was “can induce apoptosis in human tumors” and the “cytotoxicity in normal organs or tissues” value is “no cytotoxicity”. In addition, the “apoptosis in nontransformed, normal cells” value in data set [2] is “not in nontransformed, normal cells”.

Take “His-tagged TRAIL: His-tagged recombinant TRAIL version, Lawrence et al. 2001”: in the data set on hepatocyte, the “hepatocyte toxicity (apoptosis) of recombinant TRAIL versions” value is given as “induced substantial apoptosis”.

With “native form of soluble TRAIL protein: native form of soluble TRAIL protein, Lawrence et al. 2001”, the “hepatocyte toxicity (apoptosis) of recombinant TRAIL versions” value in the data set with hepatocyte was “no effect”.

Regarding “Fas ligand: Fas ligand (100 ng/ml, Upstate Biotechnology), control; well known agent which causes liver toxicity in vivo [reference compound]”, the “induction of apoptosis of U937 cells, in words” value in the data set with U937 human tumor cells is on record as “sensitive”. Further, in the data set on Normal dog hepatocytes, the “apoptosis of normal dog hepatocytes, in words” value is on record as “very sensitive”.

Values taken from US20040146896A1, “Methods and compositions for diagnosing and treating companion animal cancer” (priority 2002, published 2004).
